How the values were obtained:
磷脂酰肌醇蛋白聚糖3(GPC3) [1] = target: T1, 磷脂酰肌醇蛋白聚糖3(GPC3) (UniProt P51654 25-554); assay: flow cytometry on HepG2 cells, full-length IgG1
T1 construct: whole, on cells; also called MXR7; OCI-5

磷脂酰肌醇蛋白聚糖3(GPC3) [2] = target: T1, 磷脂酰肌醇蛋白聚糖3(GPC3); assay: flow cytometry on GPC3-CHO-S cells, full-length IgG1
磷脂酰肌醇蛋白聚糖3(GPC3) [3] = target: T1, 磷脂酰肌醇蛋白聚糖3(GPC3); assay: flow cytometry on HuH-7 cells, full-length IgG1
磷脂酰肌醇蛋白聚糖3(GPC3) [4] = target: T1, 磷脂酰肌醇蛋白聚糖3(GPC3); assay: flow cytometry on HepG2 cells
磷脂酰肌醇蛋白聚糖3(GPC3) [5] = target: T1, 磷脂酰肌醇蛋白聚糖3(GPC3); assay: flow cytometry on HuH-7 cells
磷脂酰肌醇蛋白聚糖3(GPC3) [6] = target: T1, 磷脂酰肌醇蛋白聚糖3(GPC3); assay: flow cytometry on GPC3-CHO-S cells

T1 sequence (P51654 25-554 limits assumed, form in doubt): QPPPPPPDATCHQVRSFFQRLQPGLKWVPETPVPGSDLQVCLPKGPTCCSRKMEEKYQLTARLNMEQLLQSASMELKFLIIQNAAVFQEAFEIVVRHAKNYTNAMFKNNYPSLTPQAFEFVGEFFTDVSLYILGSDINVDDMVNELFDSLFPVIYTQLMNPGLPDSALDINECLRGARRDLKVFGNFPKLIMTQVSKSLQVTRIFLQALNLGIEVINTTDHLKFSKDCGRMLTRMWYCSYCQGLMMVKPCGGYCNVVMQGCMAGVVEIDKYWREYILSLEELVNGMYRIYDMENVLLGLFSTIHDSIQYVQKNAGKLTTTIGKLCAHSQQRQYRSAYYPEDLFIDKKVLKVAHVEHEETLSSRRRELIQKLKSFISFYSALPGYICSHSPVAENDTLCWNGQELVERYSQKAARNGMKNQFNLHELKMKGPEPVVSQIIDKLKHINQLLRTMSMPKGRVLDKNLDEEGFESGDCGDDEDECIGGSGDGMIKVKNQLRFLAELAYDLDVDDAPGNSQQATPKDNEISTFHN

Row | Binder | EC50 (磷脂酰肌醇蛋白聚糖3(GPC3) [1]) [µg/mL] | EC50 (磷脂酰肌醇蛋白聚糖3(GPC3) [2]) [µg/mL] | EC50 (磷脂酰肌醇蛋白聚糖3(GPC3) [3]) [µg/mL] | further results
1 | D35 (antibody, V domains shown, also called 克隆D35) VH: EVQLVESGGGVVKPGGSLRLSCAASGFIFSDSYMTWLRQAPGKGLEWVSYISGSASDIKYADSVKGRFTISRDNAKNSLYLQMNSLRVEDTAVYYCARDPRLAGIWGQGTTVTVSS VL: DIQLTQSPSTLSASIGDRVTITCRASQRVSSRLAWYQQKPGKAPKLLIYKTSNLEAEVPSRFSGSGSGTEFTLTISSLQPDDFATYYCQQYHSYPLTFGGGTKVEIK | 7.94 | 0.0316 |  | 
2 | D36 (antibody, V domains shown, also called 克隆D36) VH: EVQLLESGGGLVKPGGSLRLSCAASGFTFSSYSMNWVRQAPGKGLEWVSSISSSSSYIYYADSVKGRFTISRDNAKNSLYLQMNSLRAEDTAVYYCARETTDGGMDVWGQGTLVTVSS VL: DIQMTQSPSSVSASVGDRVTITCRASQDIGKYLNWYQQKAGKAPNLLIYDASNLKTGVSSRFSGSGSGTEFTFTISSLQPEDIATYFCQQFDDFPYTFGPGTKVGIR |  | 0.0394 |  | 
3 | D37 (antibody, V domains shown, also called 克隆D37) VH: QVQLLESGGGLVQPGGSLRLSCAASGFTFSSYAMNWVRQAPGKGLEWVSTISGSGGSTYYADSVKGRFTISRDNSKNTLYLQMNSLRAEDTAVYYCARGSWGAFDIWGQGTPVTVSS VL: DIQLTQSPSSLSASVGDRVTITCQASQGISNYVNWYQQKPGKAPELLISDAYNLEAGVPSTFSGSGSGTQFTFTISSLQPEHIGTYYCQQFETIPWTFGQGTKIEVK |  | 0.0314 | 6.21 | 
4 | D38 (antibody, V domains shown, also called 克隆D38) VH: not shown VL: NIQMTQSPSSLSASVGDRVTISCQASQDISNYVNWYQQRPGKAPKLLMYDASNLEVGVPVRFRGSGSGTEFTFTILSLQPEDLGTYYCQQYDSLPFTFGQGTKLDLK | 83.9 | 0.0394 | 45.1 | 
5 | D48 (antibody, V domains shown, also called 克隆D48) VH: EVQLLESGGGLVQPGESLRLSCEASGLTFSSYPMAWVRQAPGKGLEWVSVIYSDGSKKFYADSVKGRFTISRHNSKNTLYLQMNSLRAEDTAVYYCARGISSSGFDYWGQGTLVTVSS VL: DIQLTQSPSSLSASVGDRVTITCRASQGISSWLAWYQQKPGKAPKLLIYAASSLQSGVPSRFSGSGSGTDFTLTISSLQPEDFATYYCQQGNSFPLTFGGGTKVEIK | 11.6 | 0.0968 |  | 
6 | Codrituzumab (antibody, human IgG1, kappa, V domains shown, also called GC33; GPC3阳性抗体) VH: QVQLVQSGAEVKKPGASVKVSCKASGYTFTDYEMHWVRQAPGQGLEWMGALDPKTGDTAYSQKFKGRVTLTADKSTSTAYMELSSLTSEDTAVYYCTRFYSYTYWGQGTLVTVSS VL: DVVMTQSPLSLPVTPGEPASISCRSSQSLVHSNRNTYLHWYLQKPGQSPQLLIYKVSNRFSGVPDRFSGSGSGTDFTLKISRVEAEDVGVYYCSQNTHVPPTFGQGTKLEIKR |  |  |  | EC50 (磷脂酰肌醇蛋白聚糖3(GPC3) [4]): 0.172 µg/mL; EC50 (磷脂酰肌醇蛋白聚糖3(GPC3) [5]): 0.191 µg/mL; EC50 (磷脂酰肌醇蛋白聚糖3(GPC3) [6]): 0.184 µg/mL
7 | D42 (antibody, V domains shown, also called 克隆D42) VH: not shown VL: DIQLTQSPSSVSASVGDRVVITCRASQSLGNWLAWYQQKPGKAPNLLIYGASTLQTGVPSRFSGFHSGGEYTLSISNLQPEDAATYYCQQASSIPLTFGGGTKVEIK | 18.3 |  |  | 
8 | D5 (antibody, V domains shown, also called 克隆D5) VH: EVQLLESGGGVVQPGRSLRLSCAASGFTFSSYAMHWVRQAPGKGLEWVAVISYDGSNKYYADSVKGRFTISRDNSKNTLYLQMNSLRAEDTAVYYCARQYSSSSPFDYWGQGTLVTVSS VL: NIQLTQSPSTLSASVGDRITITCRASQSISRWLAWYQQKPGKAPKVLIYKASNLENGVPSRFSGSGSGTEFTLTISSLQPDDSATYYCQQHSYSSPWRFGQGTKVEIK |  | 0.0664 | 9.62 | 
9 | D47 (antibody, V domains shown, also called 克隆D47) VH: EVQLLESGGGLVKPGGSLRLSCAASGFTFSSYSMNWVRQAPGKGLEWVSSISSSSSYIYYADSVKGRFTISRDNAKNSLYLQMNSLRAEDTAVYYCARGAARFDYWGQGTMVTVSS VL: NIQLTQSPSSVSASVGDRVTITCRASQGIWRWLAWYQHKPGKAPKLLISAASNLQSGVPSRFSGSGSGTDFTLTISSLQPEDVATYYCQQANSFPSLTFGGGTKVDIR |  |  | 0.0228 | 
